Measurements taken from patent US20250152742A1, “COMPOSITIONS AND METHODS FOR NEUROLOGICAL DISEASES” (Trames Bio, Inc., priority 2022, published 2025).
Changes are numbered by the printed parent chain. In names and notes the source's numbering stands.

System: engineered chimeric receptor SEQ ID NO: 33 and its mutants (human α7-nAChR ligand binding domain / human GlyRα1 ion pore domain) in Lenti-X 293T cells
Experiment: YFP fluorescence quenching anion reporter plate reader assay (percent quench, EC50)
Format: cell-based
Conditions: for YFP fluorescence quenching using CNL001 (percent quench): receptor named in row; for YFP fluorescence quenching using Facinicline, 30 nM fac: ligand Facinicline 30 nM; for YFP fluorescence quenching using Facinicline, 300 nM fac: ligand Facinicline 300 nM; for YFP fluorescence quenching using Facinicline, 30 uM fac: ligand Facinicline 30 uM; for YFP fluorescence quenching using TC-6987, 1 uM tc6987: ligand TC-6987 1 uM; for YFP fluorescence quenching using TC-6987, 10 uM tc6987: ligand TC-6987 10 uM; for YFP fluorescence quenching using TC-6987, 500 uM tc6987: ligand TC-6987 500 uM; for YFP fluorescence quenching using Varenicline, 3 nM var: ligand Varenicline 3 nM; for YFP fluorescence quenching using Varenicline, 30 nM var: ligand Varenicline 30 nM; for YFP fluorescence quenching using Varenicline, 300 nM var: ligand Varenicline 300 nM; for YFP fluorescence quenching using Varenicline, 500 nM var: ligand Varenicline 500 nM; for YFP fluorescence quenching using Varenicline, 1 uM var: ligand Varenicline 1 uM
Method in brief: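 Lenti-X 293T cells co-expressing an anion-quenchable YFP were transiently transfected with receptor DNA, then ligand was added in NaI-substituted buffer (pH 7.2) after 30 min at 37 °C. Fluorescence was read about 2 min; percent quench = mean of last 10 s over 15 s pre-ligand baseline.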

[1] = 1 nM CNL001, first column so headed
[2] = 1 nM CNL001, second column so headed
[3] = 3 nM brd (TC-5619/Bradanicline)
[4] = 10 nM CNL001, first column so headed
[5] = 10 nM CNL001, second column so headed
[6] = 30 nM brd (TC-5619/Bradanicline)
[7] = 50 nM CNL001, first column so headed
[8] = 50 nM CNL001, second column so headed
[9] = 100 nM CNL001, first column so headed
[10] = 100 nM CNL001, second column so headed
[11] = 300 nM brd (TC-5619/Bradanicline)
[12] = 1 uM CNL001, first column so headed
[13] = 1 uM CNL001, second column so headed

B1: CODA339: engineered receptor: L131D in SEQ ID NO: 33 (protein)
chain: MRCSPGGVWLALAASLLHVSLQGEFQRKLYKELVKNYNPLERPVANDSQPLTVYFSLSLLQIMDVDEKNQVLTTNIWLQMSWTDHYLQWNVSEYPGVKTVRFPDGQIWKPDILLYNSADERFDATFHTNVDVNSSGHCQYLPPGIFKSSCPMDLKNFPMDVQTCKLKFGSWSYGGWSLDLQMQEADISGYIPNGEWDLVGIPGKRSERFYECCKEPYPDVTFTVTMRRRMGYYLIQMYIPSLLIVILSWISFWINMDAAPARVGLGITTVLTMTTQSSGSRASLPKVSYVKAIDIWMAVCLLFVFSALLEYAAVNFVSRQHKELLRFRRKRRHHKSPMLNLFQEDEAGEGRFNFSAYGMGPACLQAKDGISVKGANNSNTTNPPPAPSKSPEEMRKLFIQRAKKIDKISRIGFPMAFLIFNMFYWIIYKIVRREDVHNQ
modifications: synthetic sequence of chimeric LGIC
- YFP fluorescence quenching using CNL001 (percent quench) [1]: 73.711%
- YFP fluorescence quenching using CNL001 (percent quench) [2]: 76.44%
- YFP fluorescence quenching using TC-5619/Bradanicline (percent quench) (1 nM brd (TC-5619/Bradanicline)): 4.12%
- YFP fluorescence quenching using TC-5619/Bradanicline (percent quench) [3]: 19.15%
- YFP fluorescence quenching using CNL001 (percent quench) [4]: 77.049%
- YFP fluorescence quenching using CNL001 (percent quench) [5]: 77.76%
- YFP fluorescence quenching using TC-5619/Bradanicline (percent quench) (10 nM brd (TC-5619/Bradanicline)): 68.98%
- YFP fluorescence quenching using TC-6683 (percent quench) (30 nM TC-6683): −18.32%
- YFP fluorescence quenching using TC-5619/Bradanicline (percent quench) [6]: 77.29%
- YFP fluorescence quenching using CNL001 (percent quench) [7]: 77.882%
- YFP fluorescence quenching using CNL001 (percent quench) [8]: 78.708%
- YFP fluorescence quenching using ABT-126 (percent quench) (50 nM abt (ABT-126)): −16.65%
- YFP fluorescence quenching using CNL001 (percent quench) [9]: 79.567%
- YFP fluorescence quenching using CNL001 (percent quench) [10]: 79.273%
- YFP fluorescence quenching (percent quench) (100 nM CNL002): 12.83%
- YFP fluorescence quenching using ABT-126 (percent quench) (100 nM abt (ABT-126)): −12.3%
- YFP fluorescence quenching using AZD-0328 (percent quench) (100 nM azd0328): 62.87%
- YFP fluorescence quenching using TC-5619/Bradanicline (percent quench) (100 nM brd (TC-5619/Bradanicline)): 81.41%
- YFP fluorescence quenching using TC-6683 (percent quench) (300 nM TC-6683): −17.25%
- YFP fluorescence quenching using ABT-126 (percent quench) (300 nM abt (ABT-126)): 18.5%
- YFP fluorescence quenching using AZD-0328 (percent quench) (300 nM azd0328): 77.03%
- YFP fluorescence quenching using TC-5619/Bradanicline (percent quench) [11]: 75.79%
- YFP fluorescence quenching using CNL001 (percent quench) [12]: 79.992%
- YFP fluorescence quenching using CNL001 (percent quench) [13]: 79.927%
- YFP fluorescence quenching (percent quench) (1 uM CNL002): 77.73%
- YFP fluorescence quenching using ABT-126 (percent quench) (1 uM abt (ABT-126)): 59.09%
- YFP fluorescence quenching using TC-5619/Bradanicline (percent quench) (1 uM brd (TC-5619/Bradanicline)): 82.26%
- YFP fluorescence quenching using TC-6683 (percent quench) (3 uM TC-6683): −10%
- YFP fluorescence quenching (percent quench) (10 uM ach (acetylcholine)): 4.56%
- YFP fluorescence quenching (percent quench) (30 uM CNL002): 80.58%
- YFP fluorescence quenching using TC-6683 (percent quench) (30 uM TC-6683): −8.51%
- YFP fluorescence quenching using AZD-0328 (percent quench) (30 uM azd0328): 78.63%
- YFP fluorescence quenching using TC-6683 (percent quench) (100 uM TC-6683): −9.77%
- YFP fluorescence quenching (percent quench) (100 uM ach (acetylcholine)): 10.19%
- YFP fluorescence quenching (percent quench) (1 mM ach (acetylcholine)): 77.34%
- YFP fluorescence quenching (percent quench) (3 mM ach (acetylcholine)): 77.79%
- YFP fluorescence quenching using Facinicline, 30 nM fac: 12.67
- YFP fluorescence quenching using Facinicline, 300 nM fac: 80.4
- YFP fluorescence quenching using Facinicline, 10 uM fac (ligand Facinicline 10 uM): 82.18
- YFP fluorescence quenching using Facinicline, 30 uM fac: 82.14
- YFP fluorescence quenching using TC-6987, 1 uM tc6987: 50
- YFP fluorescence quenching using TC-6987, 3 uM tc6987 (ligand TC-6987 3 uM): 80.39
- YFP fluorescence quenching using TC-6987, 5 uM tc6987 (ligand TC-6987 5 uM): 79.93
- YFP fluorescence quenching using TC-6987, 10 uM tc6987: 80.99
- YFP fluorescence quenching using TC-6987, 30 uM tc6987 (ligand TC-6987 30 uM): 83.11
- YFP fluorescence quenching using TC-6987, 50 uM tc6987 (ligand TC-6987 50 uM): 83.18
- YFP fluorescence quenching using TC-6987, 100 uM tc6987 (ligand TC-6987 100 uM): 82.16
- YFP fluorescence quenching using TC-6987, 300 uM tc6987 (ligand TC-6987 300 uM): 64.58
- YFP fluorescence quenching using TC-6987, 500 uM tc6987: 76.77
- YFP fluorescence quenching using Varenicline, 3 nM var (first column): −0.902
- YFP fluorescence quenching using Varenicline, 3 nM var (second column): −7.62
- YFP fluorescence quenching using Varenicline, 30 nM var (first column): −6.009
- YFP fluorescence quenching using Varenicline, 30 nM var (second column): −3.447
- YFP fluorescence quenching using Varenicline, 300 nM var (first column): 49.328
- YFP fluorescence quenching using Varenicline, 300 nM var (second column): 47.685
- YFP fluorescence quenching using Varenicline, 500 nM var (first column): 66.7
- YFP fluorescence quenching using Varenicline, 500 nM var (second column): 64.798
- YFP fluorescence quenching using Varenicline, 1 uM var (first column): 70.85
- YFP fluorescence quenching using Varenicline, 1 uM var (second column): 69.038

B2: CODA340: engineered receptor: L131E in SEQ ID NO: 33 (protein)
chain: B1 chain with D131E
modifications: synthetic sequence of chimeric LGIC
- YFP fluorescence quenching using CNL001 (percent quench) [1]: 76.413%
- YFP fluorescence quenching using CNL001 (percent quench) [2]: 77.144%
- YFP fluorescence quenching using TC-5619/Bradanicline (percent quench) [3]: 68.57%
- YFP fluorescence quenching using CNL001 (percent quench) [4]: 78.258%
- YFP fluorescence quenching using CNL001 (percent quench) [5]: 78.763%
- YFP fluorescence quenching using TC-6683 (percent quench) (30 nM TC-6683): 30.14%
- YFP fluorescence quenching using TC-5619/Bradanicline (percent quench) [6]: 76.85%
- YFP fluorescence quenching using CNL001 (percent quench) [7]: 79.757%
- YFP fluorescence quenching using CNL001 (percent quench) [8]: 79.327%
- YFP fluorescence quenching using ABT-126 (percent quench) (50 nM abt (ABT-126)): 2.2%
- YFP fluorescence quenching using CNL001 (percent quench) [9]: 79.011%
- YFP fluorescence quenching using CNL001 (percent quench) [10]: 79.948%
- YFP fluorescence quenching (percent quench) (100 nM CNL002): 49.97%
- YFP fluorescence quenching using ABT-126 (percent quench) (100 nM abt (ABT-126)): 25.39%
- YFP fluorescence quenching using AZD-0328 (percent quench) (100 nM azd0328): 82.48%
- YFP fluorescence quenching using TC-6683 (percent quench) (300 nM TC-6683): 33.02%
- YFP fluorescence quenching using ABT-126 (percent quench) (300 nM abt (ABT-126)): 36.48%
- YFP fluorescence quenching using AZD-0328 (percent quench) (300 nM azd0328): 82.04%
- YFP fluorescence quenching using TC-5619/Bradanicline (percent quench) [11]: 78.49%
- YFP fluorescence quenching using CNL001 (percent quench) [12]: 79.855%
- YFP fluorescence quenching using CNL001 (percent quench) [13]: 80.618%
- YFP fluorescence quenching (percent quench) (1 uM CNL002): 67.8%
- YFP fluorescence quenching using ABT-126 (percent quench) (1 uM abt (ABT-126)): 50.76%
- YFP fluorescence quenching using TC-6683 (percent quench) (3 uM TC-6683): 41.68%
- YFP fluorescence quenching (percent quench) (10 uM ach (acetylcholine)): 15.29%
- YFP fluorescence quenching (percent quench) (30 uM CNL002): 64.58%
- YFP fluorescence quenching using TC-6683 (percent quench) (30 uM TC-6683): 35.75%
- YFP fluorescence quenching (percent quench) (30 uM ach (acetylcholine)): 66.56%
- YFP fluorescence quenching using AZD-0328 (percent quench) (30 uM azd0328): 81.8%
- YFP fluorescence quenching using TC-6683 (percent quench) (100 uM TC-6683): 24.32%
- YFP fluorescence quenching (percent quench) (100 uM ach (acetylcholine)): 81.31%
- YFP fluorescence quenching (percent quench) (1 mM ach (acetylcholine)): 80.77%
- YFP fluorescence quenching (percent quench) (3 mM ach (acetylcholine)): 77.31%
- YFP fluorescence quenching using Facinicline, 30 nM fac: 82.51
- YFP fluorescence quenching using Facinicline, 100 nM fac (ligand Facinicline 100 nM): 83.6
- YFP fluorescence quenching using Facinicline, 300 nM fac: 82.92
- YFP fluorescence quenching using Facinicline, 30 uM fac: 82.68
- YFP fluorescence quenching using TC-6987, 1 uM tc6987: 80.13
- YFP fluorescence quenching using TC-6987, 10 uM tc6987: 81.29
- YFP fluorescence quenching using TC-6987, 500 uM tc6987: 79.6
- YFP fluorescence quenching using Varenicline, 3 nM var (first column): −4.061
- YFP fluorescence quenching using Varenicline, 3 nM var (second column): −0.568
- YFP fluorescence quenching using Varenicline, 30 nM var (first column): 62.964
- YFP fluorescence quenching using Varenicline, 30 nM var (second column): 63.631
- YFP fluorescence quenching using Varenicline, 300 nM var (first column): 74.912
- YFP fluorescence quenching using Varenicline, 300 nM var (second column): 75.084
- YFP fluorescence quenching using Varenicline, 500 nM var (first column): 76.346
- YFP fluorescence quenching using Varenicline, 500 nM var (second column): 75.876
- YFP fluorescence quenching using Varenicline, 1 uM var (first column): 75.805
- YFP fluorescence quenching using Varenicline, 1 uM var (second column): 74.856
